Columns and labels:
DDX17 Core WT [1] = target: T1, DDX17 Core WT (human, UniProt Q92841-1 32-477); test: X-ray crystallography
DDX17 Core WT [2] = target: T1, DDX17 Core WT; test: X-ray crystallography; remark: listed apart in the source
DDX17 Core WT [3] = target: T1, DDX17 Core WT; test: EMSA

T1 sequence (Q92841 111-556): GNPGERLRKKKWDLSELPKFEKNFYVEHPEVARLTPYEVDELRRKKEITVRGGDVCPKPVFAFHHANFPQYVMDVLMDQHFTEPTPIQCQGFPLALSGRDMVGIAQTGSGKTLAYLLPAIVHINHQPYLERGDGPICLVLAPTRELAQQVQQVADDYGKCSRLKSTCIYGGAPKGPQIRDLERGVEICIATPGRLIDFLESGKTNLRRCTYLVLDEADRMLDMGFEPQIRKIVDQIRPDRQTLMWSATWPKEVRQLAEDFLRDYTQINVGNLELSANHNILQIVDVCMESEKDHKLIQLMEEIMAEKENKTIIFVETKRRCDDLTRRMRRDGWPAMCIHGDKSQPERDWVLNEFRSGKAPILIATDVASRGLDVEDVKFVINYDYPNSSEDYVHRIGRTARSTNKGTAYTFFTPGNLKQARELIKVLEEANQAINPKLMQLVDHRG

Row | Binder | binding result (DDX17 Core WT [1]) | further results
1 | AUUCAUCCAA (ssRNA) [18a-oligo1] | binds | –
2 | UUUUUUUUUU (ssRNA) [rU10] | – | binding result (DDX17 Core WT [2]): binds
3 | ACACACCUGG (ssRNA) [125a-oligo2] | binds | –
4 | CACACACCUG (ssRNA) [125a-oligo1] | binds | –
5 | AAAAAAAAAA (ssRNA) [rA10] | – | binding result (DDX17 Core WT [3]): no binding
